The results in this text go back to patent US20120302734A1 (COMMONWEALTH SCIENTIFIC AND INDUSTRIAL RESEARCH ORGANISATION, published 2012).

The data set deals with the molecule itself. The data set can be described thus: dynamic light scattering after SDS removal, against 9.2 nm for the monomeric SDS-protein solution; self-association. As to the method: The AmelF3 honeybee silk protein was expressed into the inclusion bodies of E. coli. AmelF3 inclusion bodies were unfolded using equivalent dry weight of the detergent sodium dodecyl sulphate (SDS) to generate 2-4% monomeric protein solutions. Dynamic light scattering (DLS) measured the hydrodynamic diameter of particles in the protein-detergent solution diluted ten-fold in 100 mM NaCl as 9.2+/−0.1 nm (peak containing 98.2% of particle volume). The diameter of SDS micelles in 3% SDS solutions without protein under the same experimental conditions was a single peak at 5.5+/−0.2 nm. No SDS micelles were detected in the SDS—protein solutions confirming that the majority of the SDS was bound to the protein.
Proteins were refolded by removing SDS using KCl. […] The protein solutions were dialysed against water to reduce salt levels then concentrated by dialysis against PEG8000, resulting in 3-4% protein and 0.2-0.4% SDS concentration.

B1: Honeybee silk protein Xenospira3 (AmelF3), recombinant, without signal peptide (other)
chain: GVEEFKSSATEEVISKNLEVDLLKNVDTSAKRRENGAPVLGKNTLQSLEKIKTSASVNAKAAAVVKASALALAEAYLRASALSAAASAKAAAALKNAQQAQLNAQEKSLAALKAQSEEEAASARANAATAATQSALERAQASSRLATVAQNVASDLQKRTSTKAAAEAAATLRQLQDAERTKWSANAALEVSAAAAAAETKTTASSEAANAAAKKAAAIASDADGAERSASTEAQSAAKIESVAAAEGSANSASEDSRAAQLEASTAARANVAAAVGDGAIIGLGEEAGAAAQLLAQAKALAEVSSKSENIEDKKF
notes: The cloning primer may add an N-terminal Met
With B1, the binding result is listed as “binds”.
